# From article PMC3712912, “Dynactin Subunit p150^Glued Is a Neuron-Specific Anti-Catastrophe Factor” (PLoS Biology, 2013)
# Residue numbers refer to the chain shown, from its start. Names may count otherwise.
# B1: p150 Nt-GCN4 (human p150Glued amino acids 1–210, GCN4 coiled-coil, linker, C-terminal 6×-His) (domain or fragment)
# chain: MAQSKRHVYSRTPSGSRMSAEASARPLRVGSRVEVIGKGHRGTVAYVGATLFATGKWVGVILDEAKGKNDGTVQGRKYFTCDEGHGIFVRQSQIQVFEDGADTTSPETPDSSASKVLKREGTDTTAKTSKLRGLKPKKAPTARKTTTRRPKPTRPASTGVAGASSSLGPSGSASAGELSSSEPSTPAQTPLAAPIIPTPVLTSPGAVPPLVMKQLEDKVEELLSKNYHLENEVARLKKLVGEAAAADPPVAT
# notes: p150Glued (DCTN1), human, amino acids 1-210, NM_004082.4; holds the CAP-Gly and basic domains; short linker before the C-terminal 6×-His tag; Dimer through the GCN4 coiled-coil that replaces CC1 of p150Glued; vector pET-29a; also called dimeric p150 Nt-GCN4; p150 Nt-GCN4-His; source: Rosetta E. coli, purified (Ni Sepharose, Mono S, Superdex 200); not shown: His6, C-terminal, kept
# B2: p150 Nt-GCN4 with C-terminal EGFP-6×-His (domain or fragment)
# chain: B1 chain
# notes: p150Glued (DCTN1), human, amino acids 1-210, NM_004082.4; short linker, followed by EGFP-6×-His; also called C-terminal GFP-tagged dimeric construct; source: Rosetta E. coli, purified; not shown: EGFP, C-terminal, kept
# B3: Q74P Nt-GCN4 (p150 Nt-GCN4 with the Perry syndrome mutation Q74P) (domain or fragment)
# chain: B1 chain with Q74P
# notes: p150Glued (DCTN1), human, amino acids 1-210, NM_004082.4, with the disease mutation Q74P; short linker before the C-terminal 6×-His tag; also called Q74P p150 Nt-GCN4; source: Rosetta E. coli, purified immediately before experimentation with a final gel filtration step
# B4: p135 Nt-GCN4 (MMRQ, p150Glued amino acids 139–210, GCN4 coiled-coil, linker, C-terminal 6×-His) (domain or fragment)
# chain: MMRQAPTARKTTTRRPKPTRPASTGVAGASSSLGPSGSASAGELSSSEPSTPAQTPLAAPIIPTPVLTSPGAVPPLVMKQLEDKVEELLSKNYHLENEVARLKKLVGEAAAADPPVAT
# notes: N-terminal MMRQ replicating the endogenous expressed p135 spliceform of p150Glued (DCTN1); p150Glued (DCTN1), human, amino acids 139-210 of p150Glued, NM_004082.4; lacks the CAP-Gly domain and exon 5; short linker before the C-terminal 6×-His tag; Recapitulates the neuronally enriched p135 splice form; also called p135 dimer; source: Rosetta E. coli, purified (Ni Sepharose, Mono S, Superdex 200); …
# B5: p150 Nt with C-terminal EGFP-6×-His (domain or fragment, human)
# chain: MAQSKRHVYSRTPSGSRMSAEASARPLRVGSRVEVIGKGHRGTVAYVGATLFATGKWVGVILDEAKGKNDGTVQGRKYFTCDEGHGIFVRQSQIQVFEDGADTTSPETPDSSASKVLKREGTDTTAKTSKLRGLKPKKAPTARKTTTRRPKPTRPASTGVAGASSSLGPSGSASAGELSSSEPSTPAQTPLAAPIIPTPVLTSPGAVPPLAAAADPPVAT
# notes: p150Glued (DCTN1), human, amino acids 1-210, NM_004082.4; short linker, followed by EGFP-6×-His; also called C-terminal GFP-tagged monomeric construct; source: Rosetta E. coli, purified; not shown: EGFP, C-terminal, kept
# Assays:
# [1] = molecular target: tubulin (soluble tubulin dimers, bovine brain) (bovine) (UniProt Q6B856)
# [2] = molecular target: tubulin (soluble tubulin dimers, bovine brain) (bovine) (UniProt Q6B856); test: SEC; polypeptides incubated at the indicated molar ratio with 30 µM tubulin 10 min on ice; Superdex 200 10/300 GL, BRB20 pH 7.1 with 125 mM KCl and 10 mM imidazole (or increasing KCl, Figure 3C), eluted at 4 °C
# [3] = molecular target: Taxol-stabilized microtubules (polymerized bovine brain tubulin) (bovine) (UniProt Q6B856); test: co-sedimentation; 0.4 µM dimeric constructs with increasing concentrations of Taxol-stabilized microtubules, 37 °C 20 min, centrifuged at 100 k rpm; supernatant and pellet by SDS-PAGE and densitometry
# [4] = molecular target: the molecule itself; test: cross-linking; 0.5 µM dimeric constructs in BRB20 with 125 mM NaCl and 1 mM DTT, 0.5% glutaraldehyde on ice for 2 h; SDS-PAGE and colloidal Coomassie staining
# [5] = molecular target: T1, Taxol-stabilized microtubules (polymerized bovine brain tubulin) (bovine, UniProt Q6B856 1-445); test: co-sedimentation; 0.4 µM dimeric constructs with increasing concentrations of Taxol-stabilized microtubules, 37 °C 20 min, centrifuged at 100 k rpm; supernatant and pellet by SDS-PAGE and densitometry; settings: both partners purified
# [6] = molecular target: T1, Taxol-stabilized microtubules …; test: co-sedimentation; 0.1 µM C-terminal GFP-tagged constructs with increasing concentrations of Taxol-stabilized microtubules, 37 °C 20 min, centrifuged; depletion from the supernatant monitored by fluorimetry; settings: both partners purified
molecule,measurement,setting,value
"p150 Nt-GCN4 (human p150Glued amino acids 1–210, GCN4 coiled-coil, linker, C-terminal 6×-His) (from UniProt Q14203-1 1-210) (domain or fragment)","catastrophe frequency, TIRF elongation assay from GMPCPP seeds, 100–200 nM p150 Nt-GCN4 (fold reduction)",[1],4 fold
same,"microtubule polymerization rate, TIRF elongation assay from GMPCPP seeds, 100–200 nM p150 Nt-GCN4",[1],2 fold
same,stoichiometry N (p150∶tubulin molar ratio),[2],1
"Δ5–7 Nt-GCN4 (p150Glued amino acids 1–210 deleted for exons 5–7, GCN4 coiled-coil, linker, C-terminal 6×-His) (from UniProt Q14203-1 1-210) (domain or fragment)",Kd,[3],470 nM
B1,binding result,[4],binds
same,Kd,[5],290 nM
B2,Kd,[6],340 nM
B3,binding result,[4],binds
B4,binding result,[4],binds
B5,Kd,[6],890 nM
